This is an account of results in article PMC4811774.

Assay [1] addresses Toc75 POTRA-His (protein fragment encompassing all three Toc75 POTRA domains and a C-terminal hexahistidine tag) (Arabidopsis thaliana) (UniProt Q9STE8). Nature of the assay: pull-down; solid phase binding: increasing amounts of POTRA-His immobilised on Ni-NTA resin, incubated with in vitro translated 35S-labelled proteins in HMK buffer (50 mM Hepes-KOH pH 7.5, 2 mM MgCl2, 40 mM KOAc) with 10 mM imidazole and 0.1% Triton X-100, 30 min, 23°C; phosphorimaging.

Assay [2] deals with TOC translocons in TOC75ΔP1-2#2 chloroplasts (Arabidopsis thaliana | Arabidopsis thaliana (endogenous in chloroplasts)) (UniProt Q9STE8). Nature of the assay: other; apparent Kd, isolated chloroplasts, 0.1 mM ATP and GTP. The settings on record: natural protein.
The target of assay [3] is TOC translocons in TOC75 chloroplasts (Arabidopsis thaliana | Arabidopsis thaliana (endogenous in chloroplasts)) (UniProt Q9STE8). Nature of the assay: saturation binding to isolated chloroplasts; apparent; increasing amounts of urea-denatured preSSU-FLAG-HIS with 10^7 isolated chloroplasts, 0.1 mM ATP and GTP, 26°C, 5 min (early import intermediate); chloroplasts reisolated through Percoll, anti-FLAG immunoblot, non-linear regression. For orientation: In western blotting, separated proteins are transferred to a membrane and probed.

For assay [4], the target named is TOC translocons in TOC75ΔP1#2 chloroplasts (Arabidopsis thaliana | Arabidopsis thaliana (endogenous in chloroplasts)) (UniProt Q9STE8). The assay is described as above.

Regarding “[35S]preSSU (from UniProt P10795 1-180) (natural protein)”, the maximum binding, percent of added radiolabeled protein in assay [1] turned out to be 77%.
In the case of “preSSU-FLAG-HIS (from UniProt P10795 55-180)”, the Kd in assay [2] worked out at 126 nM.
In the case of “preSSU-FLAG-HIS (from UniProt P10795 55-180) (natural protein)”, the Kd was 159 nM in assay [3] and 188 nM in assay [4].
